According to article PMC8137598:

Target: full-length A82F variant of CYP102A1 with an N-terminal His6 tag (Bacillus megaterium) (UniProt P14779)
Test: SEC-MALS

A stoichiometry N of 2 was found for “full-length A82F variant of CYP102A1 with an N-terminal His6 tag (from UniProt P14779 1-1049) (enzyme)” in this work.
